The values that follow are results of earlier work, collected in article PMC4384115, “Molecular Recognition of PTS-1 Cargo Proteins by Pex5p: Implications for Protein Mistargeting in Primary Hyperoxaluria” (Biomolecules, 2015).

Data set [1] deals with 3-Hydroxy-3-methylglutaryl-CoA lyase PTS1 peptide (Homo sapiens).
For data set [2], the target named is L-Bifunctional enzyme PTS1 peptide (Homo sapiens).
Data set [3] concerns the target Carnitine acyl-transferase 1 PTS1 peptide (Homo sapiens).

Consider Pex5p pbd (from UniProt P50542), for which the values for the Kd in data set [1], in data set [2] and in data set [3] were 2 µM, 1.1 µM and 0.059 µM, respectively.
